Laboratory results taken from patent US20110091477A1 (Genentech, published 2011).

B1: Ab39 (antibody, V domains shown)
VH: EVQLVESGGGLVQPGGSLRLSCAASGFTFNGTYIHWVRQAPGKGLEWVGGIYPAGGATYYADSVKGRFTISRDNSKNTLYLQMNSLRAEDTAVYYCAKWWAWPAFDYWGQGTLVTVSS
VL: DIQMTQSPSSLSASVGDRVTITCRASQDVSTAVAWYQQKPGKAPKLLIYSASFLYSGVPSRFSGSGSGTDFTLTISSLQPEDFATYYCQQSYTTPPTFGQGTKVEIKR
notes: also called parental Ab39; anti-HGFA antibody Ab39
B2: Ab40.ΔTrp (antibody, V domains shown)
VH: EVQLVESGGGLVQPGGSLRLSCAASGFTFNGTYIHWVRQAPGKGLEWVGGIYPAGGATYYADSVKGRFTISRDNSKNTLYLQMNSLRAEDTAVYYCAKWAWPAFDYWGQGTLVTVSS
VL: DIQMTQSPSSLSASVGDRVTITCRASQDVSTAVAWYQQKPGKAPKLLIYSASFLYSGVPSRFSGSGSGTDFTLTISSLQPEDFATYYCQQSNRAPATFGQGTKVEIKR
notes: also called Trp96H-deletion mutant of Ab40
B3: Ab40 (antibody, V domains shown)
VH: EVQLVESGGGLVQPGGSLRLSCAASGFTFNGTYIHWVRQAPGKGLEWVGGIYPAGGATYYADSVKGRFTISRDNSKNTLYLQMNSLRAEDTAVYYCAKWWAWPAFDYWGQGTLVTVSS
VL: DIQMTQSPSSLSASVGDRVTITCRASQDVSTAVAWYQQKPGKAPKLLIYSASFLYSGVPSRFSGSGSGTDFTLTISSLQPEDFATYYCQQSNRAPATFGQGTKVEIKR
notes: also called anti-HGFA antibody Ab40

How the values were obtained:
HGFA (Val373-Ser655) [1] = target: T1, HGFA (Val373-Ser655) (human, UniProt Q04756 373-655); experiment: SPR (BIAcore 3000), IgG captured on anti-human IgG, HGFA injected, 25 C
T1 construct: a tag is not described; also called human HGFA
T1 sequence: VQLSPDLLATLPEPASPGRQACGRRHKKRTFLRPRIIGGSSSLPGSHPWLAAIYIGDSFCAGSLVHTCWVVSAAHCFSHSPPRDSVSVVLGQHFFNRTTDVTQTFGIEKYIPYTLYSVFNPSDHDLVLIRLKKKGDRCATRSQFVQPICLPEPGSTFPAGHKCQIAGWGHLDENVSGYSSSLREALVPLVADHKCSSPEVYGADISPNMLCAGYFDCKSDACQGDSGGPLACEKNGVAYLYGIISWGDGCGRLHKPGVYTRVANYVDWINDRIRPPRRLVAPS
Description: (§1) Antibody reformatting and determination of dissociation rate constants to HGFA: Anti-HGFA Fabs were reformatted into human IgG1 by cloning the VL and VH regions of individual clones into LPG3 and LPG4 vector, respectively (Liang et al, 2007). The full-length antibodies were transiently expressed in Chinese Hamster Ovary cells and purified on a protein-A column. To determine binding affinities of the reformatted anti-HGFA antibodies, surface plasmon resonance measurements on a BIAcore™-3000 instrument (GE Health Care, NJ) were performed. Rabbit anti-human IgG were chemically immobilized (amine coupling) on CM5 biosensor chips and the anti-HGFA antibodies were captured to give approximately 250 response units (RU). For kinetics measurements, two-fold serial dilutions of HGFA or active site-blocked HGFA (0.9 nM to 250 nM) were injected in PBT buffer at 25° C. with a flow rate of 30 μl/min. HGFA-KQLR (“KQLR” disclosed as SEQ ID NO: 10) was produced by incubating HGFA with two fold molar excess of Ac-KQLR-cmk (“KQLR” disclosed as SEQ ID NO: 10) for 2 hours at room temperature, followed by size exclusion chromatography to remove non-incorporated Ac-KQLR-cmk (“KQLR” disclosed as SEQ ID NO: 10). Association rates (kₒₙ) and dissociation rates (koff) were obtained by using a simple one-to-one Langmuir binding model (BIAEvaluation) and the equilibrium dissociation constants (KD) were calculated (koff/kₒₙ). Longer injection (5 min) of 2-fold serial dilution of HGFA or HGFA-KQLR (“KQLR” disclosed as SEQ ID NO: 10) (1.5 nM to 3000 nM) over captured antibody (Ab40.ΔTrp) sensor chip was implemented to achieve maximal binding (Rₘₐₓ) and reach the steady state.

[2] = target: urokinase-type plasminogen activator (UniProt P00749 21-431, limits assumed); experiment: direct binding ELISA on coated urokinase, anti-human antibody HRP conjugate, OD 450 nm
Method: (§2) FIG. 9: (a) Antibody specificity. In a direct binding ELISA, 96-well plates were coated with […] of HGFA, matriptase (Kirchhofer et al. (2003) J Biol Chem 278:36341-36349), urokinase (American Diagnostica), or factor XIIa (American Diagnostica) and incubated with […] of anti-HGFA antibodies in PBS, 0.05% (v/v) Tween-20 (PBT) buffer. After washing, bound antibodies were detected by addition of anti-human antibody HRP conjugate (diluted 1:2,500 in PBT buffer) and TMB substrate. Absorbance at 450 nm was measured on a microplate reader.
(§3) Competition HGFA binding ELISA experiments: For binding specificity measurements, 96-well Maxisorp plates were coated with 2 μg/ml of HGFA, matriptase, urokinase-type plasminogen activator or factor XIIa and incubated with 10 μg/ml of anti-HGFA IgG in PBST buffer for at least 1 hour at room temperature. The plates were washed with PBT buffer and bound antibodies were detected with anti-human antibody HRP conjugate diluted 1:2500 in PBST buffer, developed with TMB substrate for approximately 5 minutes, quenched with 1 M H₃PO₄, and absorbance was measured on a microplate reader at 450 nm.

matriptase = target: T2, matriptase (UniProt Q9Y5Y6 615-855, limits assumed); experiment: direct binding ELISA on coated matriptase, anti-human antibody HRP conjugate, OD 450 nm
T2 sequence (looked up): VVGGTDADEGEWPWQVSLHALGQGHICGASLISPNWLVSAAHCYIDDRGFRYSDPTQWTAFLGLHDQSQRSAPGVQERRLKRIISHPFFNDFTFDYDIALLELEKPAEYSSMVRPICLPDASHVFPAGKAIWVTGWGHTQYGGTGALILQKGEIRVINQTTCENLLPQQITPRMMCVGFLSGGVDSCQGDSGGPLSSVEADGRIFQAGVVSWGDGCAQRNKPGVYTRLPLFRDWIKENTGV
Method: as §2, §3

factor XIIa = target: T3, factor XIIa (UniProt P00748 20-615, limits assumed); experiment: direct binding ELISA on coated factor XIIa, anti-human antibody HRP conjugate, OD 450 nm
T3 construct: also called FXIIa; coagulation factor XIIa
T3 sequence (looked up): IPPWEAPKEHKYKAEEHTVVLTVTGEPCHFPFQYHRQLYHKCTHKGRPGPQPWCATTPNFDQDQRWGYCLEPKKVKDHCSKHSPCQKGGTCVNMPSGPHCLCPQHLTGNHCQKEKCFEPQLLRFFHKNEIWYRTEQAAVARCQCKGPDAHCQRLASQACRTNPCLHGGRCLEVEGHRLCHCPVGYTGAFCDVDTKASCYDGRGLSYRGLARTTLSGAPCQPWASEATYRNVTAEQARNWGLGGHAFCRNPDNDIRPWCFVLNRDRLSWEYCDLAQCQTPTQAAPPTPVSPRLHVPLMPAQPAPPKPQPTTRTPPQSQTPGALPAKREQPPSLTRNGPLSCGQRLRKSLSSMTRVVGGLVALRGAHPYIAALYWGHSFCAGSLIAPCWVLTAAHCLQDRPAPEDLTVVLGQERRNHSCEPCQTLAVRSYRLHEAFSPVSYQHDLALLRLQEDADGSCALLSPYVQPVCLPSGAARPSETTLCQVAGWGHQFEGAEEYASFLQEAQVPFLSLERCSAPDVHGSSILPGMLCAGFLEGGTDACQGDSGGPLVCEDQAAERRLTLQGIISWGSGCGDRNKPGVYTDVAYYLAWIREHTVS
Method: as §2, §3

HGFA (Val373-Ser655) [3] = target: T1, HGFA (Val373-Ser655); experiment: SPR (BIAcore 3000), steady state affinity, IgG captured, HGFA injected
Description: (§4) Antibody reformatting and determination of dissociation rate constants to HGFA: Anti-HGFA Fabs were reformatted into human IgG1 by cloning the VL and VH regions of individual clones into LPG3 and LPG4 vector, respectively (Liang et al, 2007). The full-length antibodies were transiently expressed in Chinese Hamster Ovary cells and purified on a protein-A column. To determine binding affinities of the reformatted anti-HGFA antibodies, surface plasmon resonance measurements on a BIAcore™-3000 instrument (GE Health Care, NJ) were performed. Rabbit anti-human IgG were chemically immobilized (amine coupling) on CM5 biosensor chips and the anti-HGFA antibodies were captured to give approximately 250 response units (RU). For kinetics measurements, two-fold serial dilutions of HGFA or active site-blocked HGFA (0.9 nM to 250 nM) were injected in PBT buffer at 25° C. with a flow rate of 30 μl/min. […] Association rates (kₒₙ) and dissociation rates (koff) were obtained by using a simple one-to-one Langmuir binding model (BIAEvaluation) and the equilibrium dissociation constants (KD) were calculated (koff/kₒₙ). […]

HGFA-KQLR complex [4] = target: T4, HGFA-KQLR complex (human, UniProt Q04756 373-655, N-terminal acetyl; C-terminal chloromethyl ketone, reacted with Ser195 and His57 of HGFA; active-site Ser195 and His57 (chymotrypsinogen numbering) covalently linked to Ac-KQLR-cmk); experiment: SPR (BIAcore 3000), steady state affinity, IgG captured, HGFA-KQLR complex injected
Description: as §4

HGFA (Val373-Ser655) [5] = target: T1, HGFA (Val373-Ser655); experiment: SPR
Description: as §4

HGFA-KQLR complex [6] = target: T4, HGFA-KQLR complex; experiment: SPR
Description: as §4

HGFA-KQLR complex [7] = target: T4, HGFA-KQLR complex; experiment: SPR (BIAcore 3000), IgG captured on anti-human IgG, HGFA-KQLR complex injected, 25 C
Description: as §1

HGFA (Val373-Ser655) [8] = target: T1, HGFA (Val373-Ser655); experiment: competition ELISA: coated HGFA incubated with increasing Ab40, then 1 nM biotinylated KD1, detected with streptavidin-HRP; blocked ligand KD1; inhibition partial
Description: FIG. 3: Effects of active site inhibitors on antibody binding to HGFA. (a-b, e-f) Surface plasmon resonance (BIAcore) measurements of binding to immobilized antibodies, Ab40 (a-b) or Ab40.ΔTrp (e-f), after co-injection of HGFA (a,e) or HGFA-KQLR (b, f) complex (“KQLR” disclosed as SEQ ID NO: 10). (c) Competition binding (BIAcore) of HGFA to immobilized Ab40 in presence of different concentrations of KD1. (d) Competition binding ELISA measuring binding of HGFA to biotinylated KD1 in the presence of increasing antibody concentrations.
HGFA purification, enzymatic kinetic assays and competition ELISA: HGFA (Val373-Ser655) was produced by use of a baculovirus—insect cell expression system and purified on a Ni-NTA-agarose column, followed by size exclusion chromatography as described (Kirchhofer et al, 2003). […] After addition of S-2266 (0.24 mM˜Kₘ) the linear rates of the increase in absorbance at 405 nm were measured on a kinetic microplate reader (Spectramax-M5, Molecular devices, Sunnyvale, Calif.). […] Various concentrations of Chromogenix S-2266 were added and the linear rates of absorbance increase at 405 nm were measured. […] Biotinylated KD1 that was bound to HGFA was detected by streptavidin-HRP conjugates.

| Binder | Kd (HGFA (Val373-Ser655) [1]) [nM] | koff (HGFA (Val373-Ser655) [1]) [s⁻¹] | kon (HGFA (Val373-Ser655) [1]) [M⁻¹ s⁻¹] | binding result [2] | binding result (matriptase) | binding result (factor XIIa) | Kd (HGFA (Val373-Ser655) [3]) [nM] | Kd (HGFA-KQLR complex [4]) [nM] | fold improvement in binding affinity over Ab39 (HGFA (Val373-Ser655) [5]) [fold] | fold decrease in affinity compared to HGFA (HGFA-KQLR complex [6]) [fold] | Kd (HGFA-KQLR complex [7]) [nM] | koff (HGFA-KQLR complex [7]) [s⁻¹] | kon (HGFA-KQLR complex [7]) [M⁻¹ s⁻¹] | IC50 (read off the curve) (HGFA (Val373-Ser655) [8]) [nM] |
| --- | --- | --- | --- | --- | --- | --- | --- | --- | --- | --- | --- | --- | --- | --- |
| B1 | 10.3 | 0.0053 | 520000 | no binding | no binding | no binding | – | – | – | – | – | – | – | – |
| B2 | – | – | – | – | – | – | 150 | 161 | – | – | – | – | – | – |
| B3 | 0.16 | 0.000175 | 1.08e+06 | no binding | no binding | no binding | – | – | 64 | 8 | 1.35 | 0.00043 | 320000 | ~1 |
